Test results taken from the Human Domainome abundance scans (Beltran et al. 2025).
± gives the uncertainty stated by the source.

B1: Neutrophil cytosol factor 2, residues 456 to 514; numbered along this chain, P19878 (parent)
chain: LKKGSQVEALFSYEATQPEDLEFQEGDIILVLSKVNEEWLEGECKGKVGIFPKVFVEDC

Variants of: B1
Test: abundance fitness (aPCA) (normalised: wild type 0, dead -1); higher = more abundant; growth selection in yeast, the domain comes from the species named
Conditions: Homo sapiens

Variant	abundance fitness
A15G	-0.152 ± 0.12
S12M	-0.382 ± 0.22
K45F	-0.669 ± 0.15
V31P	-0.046 ± 0.14
L30D	0.169 ± 0.11
L30E	0.042 ± 0.31
E14W	-0.168 ± 0.16
P52I	-0.766 ± 0.18
L10G	-0.57 ± 0.29
E37S	-0.527 ± 0.12
E19A	-0.172 ± 0.11
L40P	-0.02 ± 0.23
L21W	-0.457 ± 0.2
V48N	-0.334 ± 0.15
L1E	0.143 ± 0.28
G46K	-0.732 ± 0.42
D27W	-0.674 ± 0.26
D58S	0.022 ± 0.1
G4F	-0.312 ± 0.49
G42Q	-0.637 ± 0.28
T16Q	-0.158 ± 0.43
F55A	0.034 ± 0.11
D58Y	-0.595 ± 0.15
D20L	-0.071 ± 0.12

Variant	abundance fitness
T16W	-0.651 ± 0.37
D58C	0.313 ± 0.09
G42D	-0.803 ± 0.17
Q6R	0.028 ± 0.11
E8P	-0.363 ± 0.24
F23K	-0.048 ± 0.32
G42W	-0.322 ± 0.17
S33M	-0.677 ± 0.41
E8A	0.164 ± 0.23
S5D	0.797 ± 0.15
G42R	-0.952 ± 0.19
N36Y	-0.754 ± 0.2
K34V	0.467 ± 0.071
Q6K	0.157 ± 0.14
D27P	-0.783 ± 0.33
W39S	-0.666 ± 0.13
P18H	-0.537 ± 0.17
K45T	-0.562 ± 0.19
K53V	-0.536 ± 0.15
P52Q	-0.645 ± 0.36
E38R	-0.941 ± 0.21
E43T	-0.163 ± 0.11
K3P	0.347 ± 0.13
P52L	-0.094 ± 0.12

Variant	abundance fitness
W39E	-0.269 ± 0.26
F51G	-0.425 ± 0.097
L40Y	0.528 ± 0.077
E25W	-0.78 ± 0.36
D58L	-0.493 ± 0.15
Q6I	-0.133 ± 0.36
E14V	0.027 ± 0.089
V56E	-0.415 ± 0.36
L40K	-0.918 ± 0.33
C44D	-0.557 ± 0.15
P18F	-0.634 ± 0.14
L32R	0.564 ± 0.079
Q24K	0.047 ± 0.22
L32K	0.194 ± 0.15
Q17C	0.148 ± 0.088
S12C	-0.595 ± 0.17
I29M	-0.686 ± 0.26
G49L	-0.42 ± 0.12
S33H	-0.596 ± 0.18
E43N	-0.758 ± 0.22
P18T	-0.599 ± 0.19
Q24R	-0.234 ± 0.1
I29W	0.005 ± 0.16
N36R	-0.963 ± 0.19

Variant	abundance fitness
L1I	0.114 ± 0.29
E22Q	0.395 ± 0.46
K47E	-0.822 ± 0.42
D27R	-0.323 ± 0.11
E22Y	-0.565 ± 0.14
Q17R	0.296 ± 0.077
P52S	-0.585 ± 0.13
K45W	-0.125 ± 0.25
K53A	-0.246 ± 0.13
Q24G	-0.805 ± 0.14
I50D	-0.306 ± 0.16
E37P	-0.903 ± 0.27
E22W	-0.787 ± 0.25
V7W	-0.999 ± 0.48
G26T	-0.881 ± 0.24
E25H	0.447 ± 0.31
V48L	-0.706 ± 0.15
I29G	-0.365 ± 0.1
C44Y	-0.478 ± 0.11
I28H	0.116 ± 0.099
V54I	-0.079 ± 0.13
T16H	-0.617 ± 0.18
E8F	0.452 ± 0.17
I28W	0.025 ± 0.15

Variant	abundance fitness
F55I	-0.599 ± 0.19
P52V	-0.598 ± 0.14
E37N	0.241 ± 0.13
Q24F	-0.224 ± 0.12
I50N	-0.821 ± 0.22
A9T	-0.476 ± 0.28
E41V	-0.02 ± 0.091
Q24A	-0.186 ± 0.13
L32C	-0.428 ± 0.13
E25P	-0.89 ± 0.27
G26W	-0.809 ± 0.29
K53N	-0.378 ± 0.15
G26N	-0.517 ± 0.23
E25G	-0.201 ± 0.1
C59D	-0.555 ± 0.23
E19H	-0.096 ± 0.13
G26K	0.016 ± 0.3
L32P	-0.146 ± 0.15
G42M	-0.954 ± 0.31
C59L	-0.112 ± 0.21
V31K	-0.621 ± 0.48
E22V	-0.389 ± 0.12
K2T	0.427 ± 0.26
K47P	-0.806 ± 0.27

Variant	abundance fitness
A15Y	-0.617 ± 0.19
G42K	-0.768 ± 0.35
G49F	-0.469 ± 0.11
E43A	-0.035 ± 0.17
F55M	0.111 ± 0.23
D20E	0.757 ± 0.14
V35W	-0.019 ± 0.16
G46N	0.219 ± 0.11
P18S	-0.587 ± 0.11
E41M	0.275 ± 0.13
W39D	-0.598 ± 0.17
K34Y	-0.589 ± 0.15
E41N	-0.635 ± 0.14
P18N	-0.074 ± 0.11
V56P	-1.09 ± 0.48
A9P	0.082 ± 0.41
L32M	-0.532 ± 0.49
E22R	-0.368 ± 0.15
V56G	-0.713 ± 0.13
E37R	-0.22 ± 0.11
F23T	-0.772 ± 0.22
V54R	0.625 ± 0.082
V56K	-0.637 ± 0.48
A9C	0.167 ± 0.23

Variant	abundance fitness
E25K	0.711 ± 0.13
S5Q	-0.365 ± 0.27
K34Q	-0.215 ± 0.27
T16E	-0.368 ± 0.35
E38W	-0.396 ± 0.24
G49W	-0.137 ± 0.17
L40C	-0.614 ± 0.17
K45C	-0.191 ± 0.14
T16S	-0.153 ± 0.097
V54D	0.049 ± 0.12
G42I	-0.473 ± 0.15
G49T	-0.951 ± 0.25
S12Y	-0.841 ± 0.16
E19P	-1.06 ± 0.34
K3S	-0.474 ± 0.25
L21A	-0.565 ± 0.14
F51V	-0.342 ± 0.11
L30S	0.469 ± 0.068
E19G	0.598 ± 0.071
V48I	-0.138 ± 0.1
N36C	-0.761 ± 0.15
K47R	-0.118 ± 0.11
V54G	-0.209 ± 0.097
